The target of test [1] is murine CAIX on CHO cells (CHO-mCAIX) (mouse) (UniProt Q8VHB5). The experiment in a line: flow cytometry on CHO-mCAIX cells.
The target in test [2] is monkey CAIX on CHO cells (CHO-cyCAIX) (monkey). In words: flow cytometry on CHO-cyCAIX cells.
Test [3] deals with human CAIX on CHO cells (CHO-hCAIX) (human) (UniProt Q16790). In words: flow cytometry on CHO-hCAIX cells.
Test [4] concerns the target human CAIX antigen (purchased from AcroBiosystems) (human) (UniProt Q16790). In words: BLI (ForteBio), method of Example 3.

Chain of murine CAIX on CHO cells (CHO-mCAIX) (mouse) (Q8VHB5 32-437): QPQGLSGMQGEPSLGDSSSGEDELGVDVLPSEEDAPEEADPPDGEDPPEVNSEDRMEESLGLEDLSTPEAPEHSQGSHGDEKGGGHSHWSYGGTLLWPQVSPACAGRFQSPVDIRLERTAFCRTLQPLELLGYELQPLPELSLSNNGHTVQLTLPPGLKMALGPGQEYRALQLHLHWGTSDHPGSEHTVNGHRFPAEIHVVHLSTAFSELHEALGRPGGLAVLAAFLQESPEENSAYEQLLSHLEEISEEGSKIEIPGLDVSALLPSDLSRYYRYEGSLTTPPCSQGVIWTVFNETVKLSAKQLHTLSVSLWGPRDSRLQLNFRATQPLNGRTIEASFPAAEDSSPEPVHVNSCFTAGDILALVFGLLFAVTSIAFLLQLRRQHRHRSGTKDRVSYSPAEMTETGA

For Gerentuximab (antibody), the EC50 in test [1] stood at 35.1 nM. The EC50 in test [2] was found to be 27.9 nM. The substance further showed an EC50 in test [3] of 16.5 nM. In test [4], the Kd turned out to be 1.01 nM, the koff stood at 0.0001 s⁻¹ and the kon is 98600 M⁻¹ s⁻¹.

Values taken from patent US20230002503A1.
